Blank lines part the entries; values can stand above or below the binder they belong to.
Experiments:
[1] = molecular target: T1, IL-11 receptor α (amino acids 113-318), the receptor part of the IL-11/IL-11Rα fusion (UniProt Q14626 113-318); assay: HDX-MS
T1 sequence (looked up): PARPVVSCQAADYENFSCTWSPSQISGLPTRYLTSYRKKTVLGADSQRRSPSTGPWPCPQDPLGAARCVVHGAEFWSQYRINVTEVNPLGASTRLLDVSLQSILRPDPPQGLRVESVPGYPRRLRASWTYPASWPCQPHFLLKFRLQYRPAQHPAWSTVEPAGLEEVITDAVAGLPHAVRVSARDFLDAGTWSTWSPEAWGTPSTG

[2] = molecular target: T2, IL-11/IL-11Rα fusion (interleukin and receptor connected with a (GGGGS)3 linker) (UniProt Q14626 113-318; P20809 23-199); assay: ITC
T2 chain: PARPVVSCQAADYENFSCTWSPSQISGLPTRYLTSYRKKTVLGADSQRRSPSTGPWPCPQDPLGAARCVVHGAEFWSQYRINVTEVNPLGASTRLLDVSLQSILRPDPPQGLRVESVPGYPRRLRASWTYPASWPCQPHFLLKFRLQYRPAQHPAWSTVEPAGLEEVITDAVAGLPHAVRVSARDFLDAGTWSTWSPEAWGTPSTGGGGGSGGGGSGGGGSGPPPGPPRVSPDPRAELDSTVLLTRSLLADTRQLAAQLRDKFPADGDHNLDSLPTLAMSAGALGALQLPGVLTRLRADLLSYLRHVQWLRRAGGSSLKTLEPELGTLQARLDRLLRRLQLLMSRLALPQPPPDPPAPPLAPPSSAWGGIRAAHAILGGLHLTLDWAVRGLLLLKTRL

[3] = molecular target: IL-6/IL-6Rα fusion (interleukin and receptor connected with a (GGGGS)3 linker) (UniProt P08887 114-320; P05231 30-212); assay: ITC
[4] = molecular target: T3, IL-11 receptor α, fusion protein with the Fc domain of human IgG1 (UniProt Q14626 24-370); assay: SPR
T3 sequence (looked up): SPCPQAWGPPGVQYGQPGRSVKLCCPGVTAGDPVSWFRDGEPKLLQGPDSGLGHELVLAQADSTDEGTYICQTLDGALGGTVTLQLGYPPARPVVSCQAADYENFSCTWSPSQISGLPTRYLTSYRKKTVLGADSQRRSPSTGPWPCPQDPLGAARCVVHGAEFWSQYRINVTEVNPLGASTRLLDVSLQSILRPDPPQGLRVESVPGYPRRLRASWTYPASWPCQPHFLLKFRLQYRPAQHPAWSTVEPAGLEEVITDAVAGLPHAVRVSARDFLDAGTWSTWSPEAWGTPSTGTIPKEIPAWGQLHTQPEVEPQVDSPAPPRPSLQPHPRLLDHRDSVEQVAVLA

- binding result [1]: binds
B1: Interleukin-11 (amino acids 23-199), the interleukin part of the IL-11/IL-11Rα fusion (domain or fragment, UniProt P20809 23-199, looked up)
chain: GPPPGPPRVSPDPRAELDSTVLLTRSLLADTRQLAAQLRDKFPADGDHNLDSLPTLAMSAGALGALQLPGVLTRLRADLLSYLRHVQWLRRAGGSSLKTLEPELGTLQARLDRLLRRLQLLMSRLALPQPPPDPPAPPLAPPSSAWGGIRAAHAILGGLHLTLDWAVRGLLLLKTRL

- dH [2]: -12.2 ± 0.239 kcal/mol
- dH [3]: -6.69 ± 0.239 kcal/mol
B2: human glycoprotein 130 (amino acids 24-618) (receptor, UniProt P40189 24-618, looked up)
chain: LLDPCGYISPESPVVQLHSNFTAVCVLKEKCMDYFHVNANYIVWKTNHFTIPKEQYTIINRTASSVTFTDIASLNIQLTCNILTFGQLEQNVYGITIISGLPPEKPKNLSCIVNEGKKMRCEWDGGRETHLETNFTLKSEWATHKFADCKAKRDTPTSCTVDYSTVYFVNIEVWVEAENALGKVTSDHINFDPVYKVKPNPPHNLSVINSEELSSILKLTWTNPSIKSVIILKYNIQYRTKDASTWSQIPPEDTASTRSSFTVQDLKPFTEYVFRIRCMKEDGKGYWSDWSEEASGITYEDRPSKAPSFWYKIDPSHTQGYRTVQLVWKTLPPFEANGKILDYEVTLTRWKSHLQNYTVNATKLTVNLTNDRYLATLTVRNLVGKSDAAVLTIPACDFQATHPVMDLKAFPKDNMLWVEWTTPRESVKKYILEWCVLSDKAPCITDWQQEDGTVHRTYLRGNLAESKCYLITVTPVYADGPGSPESIKAYLKQAPPSKGPTVRTKKVGKNEAVLEWDQLPVDVQNGFIRNYTIFYRTIIGNETAVNVDSSHTEYTLSSLTSDTLYMVRMAAYTDEGGKDGPEFTFTTPKFAQGEI

- dH [4]: 11.2 ± 0.717 kcal/mol
B3: Interleukin-11 (ligand, UniProt P20809 22-199, looked up)
chain: PGPPPGPPRVSPDPRAELDSTVLLTRSLLADTRQLAAQLRDKFPADGDHNLDSLPTLAMSAGALGALQLPGVLTRLRADLLSYLRHVQWLRRAGGSSLKTLEPELGTLQARLDRLLRRLQLLMSRLALPQPPPDPPAPPLAPPSSAWGGIRAAHAILGGLHLTLDWAVRGLLLLKTRL

— paper doi:10.1101/2022.07.14.499993 (bioRxiv, 2022)
